Assay results taken from paper doi:10.1101/2024.09.16.613340.

Target: KSS-1::Strep (C. tropicalis)
Assay: SEC-MALS

SKR-1 (untagged) (natural protein)
stoichiometry N: 1
